Assays:
[1] = target: human LIFR/gp130 heterodimer expressed on the surface of 293T cells (human) (UniProt P42702); experiment: flow cytometry on HEK293T-huLIFR/gp130 cells, median fluorescence, span of the fitted curve
[2] = target: human LIFR expressed on the surface of 293T cells (human) (UniProt P42702); experiment: flow cytometry on HEK293T-huLIFR cells, median fluorescence, span of the fitted curve
Sequence of human LIFR expressed on the surface of 293T cells (human) (P42702 45-1097): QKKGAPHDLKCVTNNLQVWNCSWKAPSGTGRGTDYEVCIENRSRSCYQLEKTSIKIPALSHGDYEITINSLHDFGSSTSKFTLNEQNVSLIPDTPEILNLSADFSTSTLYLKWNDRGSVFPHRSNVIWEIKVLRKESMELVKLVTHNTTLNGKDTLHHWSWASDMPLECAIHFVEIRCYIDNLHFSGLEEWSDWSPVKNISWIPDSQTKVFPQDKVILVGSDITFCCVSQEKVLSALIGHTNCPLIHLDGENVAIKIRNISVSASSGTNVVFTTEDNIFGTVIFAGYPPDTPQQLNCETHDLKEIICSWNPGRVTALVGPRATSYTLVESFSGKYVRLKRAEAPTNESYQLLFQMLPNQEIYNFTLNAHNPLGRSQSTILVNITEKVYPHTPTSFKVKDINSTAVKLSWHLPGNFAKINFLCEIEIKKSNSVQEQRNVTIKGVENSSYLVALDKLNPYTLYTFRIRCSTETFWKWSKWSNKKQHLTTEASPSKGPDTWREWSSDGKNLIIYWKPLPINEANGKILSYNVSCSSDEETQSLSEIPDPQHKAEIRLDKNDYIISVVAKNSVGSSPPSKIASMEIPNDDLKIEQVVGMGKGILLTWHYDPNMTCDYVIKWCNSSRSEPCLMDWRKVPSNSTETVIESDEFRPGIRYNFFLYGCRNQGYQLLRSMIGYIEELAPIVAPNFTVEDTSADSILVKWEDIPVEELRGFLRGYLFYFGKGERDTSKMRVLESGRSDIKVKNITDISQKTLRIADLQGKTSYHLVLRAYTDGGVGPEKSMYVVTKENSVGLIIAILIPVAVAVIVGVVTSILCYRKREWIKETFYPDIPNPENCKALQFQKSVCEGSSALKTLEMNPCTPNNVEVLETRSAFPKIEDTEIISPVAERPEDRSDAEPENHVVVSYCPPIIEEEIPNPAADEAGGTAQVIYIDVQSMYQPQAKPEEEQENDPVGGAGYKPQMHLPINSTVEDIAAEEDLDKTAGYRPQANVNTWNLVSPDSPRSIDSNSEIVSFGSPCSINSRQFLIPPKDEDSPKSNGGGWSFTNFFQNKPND

Sequence of human LIFR/gp130 heterodimer expressed on the surface of 293T cells (human) (P42702 45-1097, chain 1 of 2): as the sequence (P42702 45-1097) above
Sequence of human LIFR/gp130 heterodimer expressed on the surface of 293T cells (human) (P40189 23-918, chain 2 of 2, further chain): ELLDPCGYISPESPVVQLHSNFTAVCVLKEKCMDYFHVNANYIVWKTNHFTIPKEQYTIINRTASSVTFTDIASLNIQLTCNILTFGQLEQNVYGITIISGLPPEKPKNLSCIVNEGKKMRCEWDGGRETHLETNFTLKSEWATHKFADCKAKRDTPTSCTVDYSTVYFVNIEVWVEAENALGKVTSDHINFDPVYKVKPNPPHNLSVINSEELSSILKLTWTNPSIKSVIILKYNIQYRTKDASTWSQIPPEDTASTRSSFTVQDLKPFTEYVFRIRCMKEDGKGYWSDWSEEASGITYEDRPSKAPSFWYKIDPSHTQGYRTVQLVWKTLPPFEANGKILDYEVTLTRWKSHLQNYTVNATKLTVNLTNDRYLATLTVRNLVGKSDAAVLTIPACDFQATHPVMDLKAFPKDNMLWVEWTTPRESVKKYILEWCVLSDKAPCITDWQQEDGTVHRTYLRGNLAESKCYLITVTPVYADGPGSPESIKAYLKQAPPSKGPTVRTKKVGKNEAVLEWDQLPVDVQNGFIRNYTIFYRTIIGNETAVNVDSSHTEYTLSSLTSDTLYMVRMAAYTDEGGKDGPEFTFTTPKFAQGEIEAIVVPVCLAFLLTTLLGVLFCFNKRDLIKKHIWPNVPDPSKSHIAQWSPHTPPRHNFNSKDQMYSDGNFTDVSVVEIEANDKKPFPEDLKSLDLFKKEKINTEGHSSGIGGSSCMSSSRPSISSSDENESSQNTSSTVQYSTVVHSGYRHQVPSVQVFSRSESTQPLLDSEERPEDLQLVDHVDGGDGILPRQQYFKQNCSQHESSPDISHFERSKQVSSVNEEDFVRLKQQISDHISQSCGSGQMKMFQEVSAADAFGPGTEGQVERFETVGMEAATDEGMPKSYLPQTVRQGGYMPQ

- Span [1]: 90.1
- Span [2]: 12
Substance: hIgG1 (antibody)

— patent US20250136702A1, “HUMAN LIFR ANTIGEN BINDING PROTEIN, PREPARATION METHOD THEREFOR, AND APPLICATION THEREOF” (NONA BIOSCIENCES (SUZHOU) CO., LTD., priority 2020, published 2025)
